Test results: patent publication US20240336900A1, “METHODS AND COMPOSITIONS RELATED TO MODIFIED METHYLTRANSFERASES AND ENGINEERED BIOSENSORS” (BOARD OF REGENTS, THE UNIVERSITY OF TEXAS SYSTEM, priority 2023, published 2024)

Key:
[1] = Differential scanning fluorimetry; assay type: physicochemical; conditions: for Tm: 5 μM protein, SYPRO Orange
Protocol: Purified Nb4OMT variants in the concentration of 5 μM were prepared in 96-well low-profile PCR plates (ABgene, Thermo Scientific). 10×SYPRO® Orange (Molecular Probes) was added into each well and mixed prior to measurement in an RT-PCR machine (LightCycler 480, Roche). The protein melting experiments were carried out with a continuous temperature acquisition mode using 10 acquisitions per 1° C. in each cycle from 20° C. to 95° C. The melting curves of the Nb4OMT variants were monophasic and Tm values were derived using Boltzmann equation.

[2] = HPLC and LC/MS analysis of in vivo Nb4OMT reaction supernatant; assay type: cell-based, Escherichia coli
Protocol: Assay samples were filtered using a 0.2-um PTFE syringe filter prior to running the HPLC. The measurement of Norbelladine and 4-O'Methyl-norbelladine was performed using a Vanquish HPLC system (Thermo Fisher Scientific) equipped with a BDS Hypersil TM C18 (3.0×150 mm 2, 3 um) (Thermo Fisher Scientific) with detection wavelength 277 nm. The mobile phase consisted of 0.1% formic acid in water or 0.1% formic acid in acetonitrile over the course of 28 minutes under the following conditions: 10% organic (vol/vol) for 2 minutes, 10 to 30% organic (vol/vol) for 13 minutes, 30 to 90% organic (vol/vol) for 0.1 minutes, 90% organic (vol/vol) for 4.9 minutes, 90 to 10% organic (vol/vol) for 1 minute, and 10% organic (vol/vol) for 7 minutes. The flow rate was fixed at 0.8 ml min-1. A standard curve for norbelladine was prepared using synthesized norbelladine (see Chemical synthesis and NMR analysis of norbelladine). A standard curve for 4-O'Methyl-norbelladine was prepared using commercially available 4-O'Methyl-norbelladine.
Cells containing the plasmid expressing each Nb4OMT variant with the P150-RBS (RiboJ) promoter were transformed and plated onto an LB agar plate containing appropriate antibiotics. […]
Samples were analyzed using an Agilent 6530 Q-TOF LC-MS with a dual Agilent Jet Stream electrospray ionization source in positive mode. […]

[3] = Steady state kinetics of purified Nb4OMT variants; assay type: biochemical; conditions: for kcat: 3.5 nM enzyme, 500 μM SAM, 37° C., PBS pH 7.5; for Km: calculated by dividing kcat by kcat/Km
Protocol: Reactions for kinetics measurements were performed in triplicate for all enzyme variants. For each variant 1.5 ml reactions containing 3.5 nM of enzyme, 500 μM SAM, 2 mM CaCl2), and 15.625, 31.25, 62.5, 125, 250, or 500 μM norbelladine in PBS pH 7.5 were incubated at 37° C. for 4 hours. Every hour a 200 μl aliquot of each reaction was quenched by pipetting it into a 1.5 ml microcentrifuge tube with 20 μl of 2M HCl. The concentration of 4′-O-Methylnorbelladine was then determined using HPLC as described.
Kinetic data were fit in KinTek Explorer simulation and data fitting software v11 (Roy, 2018). The following minimal model was used as an input. Each line represents a step in the model and the forward reaction goes from left to right while the reverse reaction goes from right to left as written. • (1) E+S=ES • (2) ES=EP • (3) EP=E+P • (4) S=P2
3.5 nM enzyme and 15.625, 31.25, 62.5, 125, 250, and 500 M substrate. The output observable was defined as EP+P. Substrate oxidation was modeled in step (4) as irreversible with a best fit value from globally fitting data from all variants to derive k4=0.00547 min^−1.To get kout/Km and kcat: k−1, k−2, and k−3 were locked at 0 min-1 (irreversible reactions). k+3 was locked at 10,000 min-1 as to not limit the rate of turnover. k+1 and k+2 were used as variable parameters in the fitting. Under these conditions, k+2=kcat and k+1=kcat/Km. For estimates of 95% confidence intervals on kinetic parameters, confidence contour analysis was used with the FitSpace function in KinTek Explorer (Bhattacharya, 2015). Confidence contour plots are calculated by systematically varying a single rate constant and holding it fixed at a particular value while refitting the data, allowing other rate constants to float. The goodness of fit was scored by the resulting χ^2 value. The confidence interval is defined based on a threshold in χ^2 calculated from the F-distribution based on the number of data points and number of variable parameters to give the 95% confidence limits. For the data given in FIGS. 20A-20C, this threshold was 0.85 to estimate the upper and lower limits for each parameter. […] We then fit the data for these two variants to the model shown below, accounting for substrate inhibition.
As before, k+1 was allowed to float in the fitting to give kcat/Km, and k−1 was locked at 0 min^−1, k+2 was allowed to float in the fitting to give kcat, and k−2 was locked at 0 min^−1. k+3 was locked at 10,000 min^−1, and k−3 was locked at 0 min^−1. k+4 and k+6 were locked at 100 μM^−1 min^−1, and k−4 and k−6 were allowed to float in the fitting as linked parameters. k+5 was linked to k+1 and k−5 was locked at 0 min^−1. k−7 was locked at 0 min^−1, and k+7 was locked at 0.00547 min^−1.

[4] = Biosensor-linked O-methyltransferase activity assay; assay type: cell-based, Escherichia coli; conditions: single mutational designs; 25, 30, 37 °C; 100 uM, 1 mM norbelladine
Protocol: Nb4OMT was expressed with the P150-RBS (riboJ) promoter-RBS on the pReg-RamR plasmid backbone (no regulator present). Cells were co-transformed with both the 40MT plasmid and the 4NB reporter plasmid and plated on an LB agar plate containing appropriate antibiotics. Three individual colonies from each transformation were picked into LB and grown overnight. Resulting cultures were diluted 50-fold into 1 ml LB medium containing the indicated concentration of norbelladine in a 96-deep-well plate and were grown at the indicated temperature for 24 h. Subsequently, the fluorescence of cultures was measured in the same manner as previously described in Dose-response measurement above.

Molecule	Tm [1] [°C]	regiospecificity ([2]; 3-OMe-norbelladine identified as minor component)	kcat [3] [s⁻¹]	Km [3] [µM]	increase in Tm relative to the wild-type enzyme [1] [°C]	reduction of 3-O'Methyl-norbelladine off-product ([2]; relative to wild-type Nb4OMT)	fluorescent signal relative to the wild-type enzyme [4]	increase in keut relative to the wild-type enzyme [3] [fold]	increase of kcal/Km relative to the wild-type enzyme [3]	substrate inhibition ([3]; steady state kinetic data, highest norbelladine concentration)
Wild-type Nb4OMT: natural norbelladine 4′-O-Methyltransferase from Narcissus pseudonarcissus (protein, Description of sequence: Natural enzyme, norbelladine 4'-O-Methyltransferase, natural norbelladine 4′-O-Methyltransferase from Narcissus pseudonarcissus) MGASIDDYSLVHKNILHSEDLLKYILETSAYPREHEQLKGLREVTEKHEWSSALVPADEGLFLSMLLKLMNAKRTIEIGVYTGYSLLTTALALPEDGKITAIDVNKSYYEIGLPFIQKAGVEHKINFIESEALPVLDQMLEEMKEEDLYDYAFVDADKSNYANYHERLVKLVRIGGAILYDNTLWYGSVAYPEYPGLHPEEEVARLSFRNLNTFLAADPRVEISQVSIGDGVTICRRLY	52.8	not highly regiospecific	1.22	62						
A53M mutant: Nb4OMT variant with mutation A53M (protein, Description of sequence: Improved enzyme variant A53M) MGASIDDYSLVHKNILHSEDLLKYILETSAYPREHEQLKGLREVTEKHEWSSMLVPADEGLFLSMLLKLMNAKRTIEIGVYTGYSLLTTALALPEDGKITAIDVNKSYYEIGLPFIQKAGVEHKINFIESEALPVLDQMLEEMKEEDLYDYAFVDADKSNYANYHERLVKLVRIGGAILYDNTLWYGSVAYPEYPGLHPEEEVARLSFRNLNTFLAADPRVEISQVSIGDGVTICRRLY	54.5		>3.17	< 90	1.7	about 3 fold	significantly above the wild-type enzyme	> 2.1	about 2 fold	affected by substrate inhibition
